The nature of data set [1]: in vivo. Also on record: species or system mice. The conditions noted are these: male, athymic nude (outbred) CrTac:NCr-Foxn1nu, mouse, iv, 11.1 MBq, total radioactivity, Activity concentration.
Data set [2] concerns PC-3 tumor–bearing mice. The conditions noted are these: mouse, in vivo.

This is an account of results in article PMC4470706 (Journal of nuclear medicine : official publication, Society …, 2015).

One may read the tissue uptake as the share of the injected amount in each gram of the tissue. For the compound `CC(C)C[C@H](NC(=O)C[C@H](O)[C@H](CC(C)C)NC(=O)[C@H](Cc1c[nH]cn1)NC(=O)CNC(=O)[C@@H](NC(=O)[C@H](C)NC(=O)[C@H](Cc1c[nH]c2ccccc12)NC(=O)[C@H](CCC(N)=O)NC(=O)[C@@H](Cc1ccccc1)NC(=O)CCOCCOCCOCCOCCNC(=O)CN1CCN(CC(=O)O)CCN(CC(=O)O)CCN(CC(=O)O)CC1)C(C)C)C(N)=O` [^90Y-DOTA-AR, metal not drawn], in data set [1] (PC-3 tumor), the tissue uptake at 1 h is 3.62 ± 0.95 %ID/g, the tissue uptake at 4 h was determined as 2.92 ± 0.57 %ID/g, the tissue uptake at 24 h turned out to be 0.45 ± 0.04 %ID/g and the tissue uptake at 48 h turned out to be 0.1 ± 0.05 %ID/g. Also, in data set [1] (kidney), the tissue uptake at 1 h is 1.76 ± 0.61 %ID/g, the tissue uptake at 4 h stood at 0.78 ± 0.14 %ID/g, the tissue uptake at 24 h is 0.17 ± 0.02 %ID/g and the tissue uptake at 48 h worked out at 0.07 ± 0.01 %ID/g. Further, in data set [1] (liver), the tissue uptake at 1 h came out at 0.21 ± 0.05 %ID/g, the tissue uptake at 4 h was determined as 0.12 ± 0.06 %ID/g, the tissue uptake at 24 h came out at 0.04 ± 0.01 %ID/g and the tissue uptake at 48 h was 0.02 %ID/g. Besides, in data set [2], the “Radiation dose to kidney” value came out at 0.06 ± 0.01 Gy/MBq and the “Radiation dose to kidney, range” value is 0.05–0.08 Gy/MBq.
